Source: US20230287362

Target: T1, E. cloacae His6-CD-NTase fused at its C terminus to GFP
T1 chain: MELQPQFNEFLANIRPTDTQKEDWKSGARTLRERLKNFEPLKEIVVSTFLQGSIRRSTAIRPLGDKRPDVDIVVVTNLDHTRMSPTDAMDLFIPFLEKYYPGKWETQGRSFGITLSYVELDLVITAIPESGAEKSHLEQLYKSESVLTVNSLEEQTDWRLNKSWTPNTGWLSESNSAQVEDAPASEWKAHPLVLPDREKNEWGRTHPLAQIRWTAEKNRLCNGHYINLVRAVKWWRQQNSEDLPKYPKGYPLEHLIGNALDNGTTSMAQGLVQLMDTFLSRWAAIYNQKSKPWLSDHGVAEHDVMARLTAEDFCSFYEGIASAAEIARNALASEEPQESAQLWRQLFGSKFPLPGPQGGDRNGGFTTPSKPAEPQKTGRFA

B1: E. cloacae Cap3, residues 17-180 of the annotated gene (protein)
chain: MSIKDVTFSSEGALYTIVISSSTIEQMVSECLKAGVNETGGILIGSYSEDSSTAMIVEATTRPADSLAGRTTFQRGVRGLRPLLHARWKTGLYYVGEWHFHPGGSPEPSGDDFRSMTSIAANSDYQCLEPVMIILGGDPAGSYSLSASVSPRGDAPIRLREVLI
cleavage of the CD-NTase-GFP model substrate (SDS-PAGE, mass spectrometry): Both Cap3 proteins precisely cleaved the CD-NTase-GFP fusions at the CD-NTase C terminus
